Test results published in PMC9978625, “Activation of protein arginine methyltransferase 1 and subsequent extension of moth lifespan is effected by the ROS/JNK/CREB signaling axis”.

Target: T1, CREB (Har-CREB) (Helicoverpa armigera, UniProt A0A3G1CVR7 1-265)
T1 sequence: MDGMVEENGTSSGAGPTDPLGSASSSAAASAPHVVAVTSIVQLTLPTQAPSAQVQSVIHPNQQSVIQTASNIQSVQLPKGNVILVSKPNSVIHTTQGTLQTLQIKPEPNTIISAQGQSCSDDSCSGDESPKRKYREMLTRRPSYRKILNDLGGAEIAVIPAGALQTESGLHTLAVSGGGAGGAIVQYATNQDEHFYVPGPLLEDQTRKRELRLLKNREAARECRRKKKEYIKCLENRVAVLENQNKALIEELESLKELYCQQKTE
Assay: EMSA; shift competed by 100-fold unlabeled PS; EMSA (LightShift): 20 ul, 50 ng/ul poly(dI-dC), 2.5% glycerol, 5 mM MgCl2, 0.05% NP40, 20 fmol biotin probe, RT 20 min; pH and salt not stated. MPS (S22/S23) and NS competitors were tested only with brain nuclear extract without supershift, so not listed
Settings: protein: ivt; chain copies: 2; blunt

B1: PS (PRMT1 promoter-specific probe) (dsDNA)
DNA 1: CGTTTTTGATATGAGGAAAATGAGCTCTGCAA
DNA 2: TTGCAGAGCTCATTTTCCTCATATCAAAAACG
Q: Does B1 bind?
A: binds
